Reference: PMC3938055

Key:
CENP-S-EGFP (human) = CENP-S-EGFP (human) (UniProt Q8N2Z9); assay: FRET or BRET; acceptor photobleaching FRET at centromeres in living cells; EGFP donor, mCherry acceptor bleached in a 4-10 µm^2 region; E_FRET against EVAR of an unbleached region, Mann-Whitney rank-sum test
EGFP-CENP-S (human) = EGFP-CENP-S (human) (UniProt Q8N2Z9); assay: as above

E FRET (CENP-S-EGFP (human)): 4.15
ΔE (E FRET – EVAR) (CENP-S-EGFP (human)): 4.5
E FRET (EGFP-CENP-S (human)): 3
ΔE (E FRET – EVAR) (EGFP-CENP-S (human)): 4.5
Substance: CENP-T-mCherry (from UniProt Q96BT3 1-561) (natural protein)
